This series is described as follows: soluble on expression in E. coli; label from the status in PepcDB or PDB records.
Take “MQSLSPTSRYLQALNEGTHQPDDVQKEAVDRLETLYQALTAKKSSATPPGGLIARLGKLLGKNEPDAQIPVRGLYMWGGVGRGKTWLMDLFYHSLPGERKLRLHFHRFMLRVHEELTALQGQIDPLDIIADRFKTETDVLCFDEFFVTDITDAMLLGGLMKALFARGITLVATSNIPPEELYRNGLQRARFLPAIDAIKQHCDIMNVDAGVDYRLRTLTQAHLWLTPLNDETRRQMDKLWLALAGAAREHAPTLEINHRPLSTLGVENQTLAVSFATLCVEARSQHDYIALSRLFHTVLLFDVPVMTPLMENEARRFIALVDEFYERHVKLVVSAAAPLYEIYQGERLKFEFQRCLSRLQEMQSAEYLKREHMPMAGDPLEHHHHHH”: the “soluble on expression in E. coli” value is “not soluble”.

With “MQSNKAFNLEKQNHTPRKHHQHHHQQHHQQQQQQQQQQPPPPIPANGQQASSQNEGLTIDLKNFRKPGEKTFTQRSRLFVGNLPPDITEEEMRKLFEKYGKAGEVFIHKDKGFGFIRLETRTLAEIAKVELDNMPLRGKQLRVRFACHSASLTVRNLPQYVSNELLEEAFSVFGQVERAVVIVDDRGRPSGKGIVEFSGKPAARKALDRCSEGSFLLTTFPRPVTVEPMDQLDDEEGLPEKLVIKNQQFHKEREQPPRFAQPGSFEYEYAMRWKALIEMEKQQQDQVDRNIKEAREKLEMEMEAARHEHQVMLMRQDLMRRQEELRRMEELHNQEVQKRKQLELRQEEERRRREEEMRRQQEEMMRRQQEGFKGTFPDAREQEIRMGQMAMGGAMGINNRGAMPPAPVPPGTPAPPGPATMMPDGTLGLTPPTTERFGQAATMEGIGAIGGTPPAFNRPAPGAEFAPNKRRRY”, the “soluble on expression in E. coli” value was “soluble”.

“MQSSNGEHHQQKQTPYFMNAPCDPALLALAQQTFLGFQPQKNMYQHGFPPMLPHRNLIPSLAAAIPEMDKLMLEEPIEAGSMPYRRATNKNISVSDDSFNNMHRSSSSSQYRRHSAQWETMTDDERESVQRQKRKEEAFKTALCDAFKRSGSCPYGEACRFAHGENELRMPSQPRGKAHPKYKTQLCDKFSNFGQCPYGPRCQFIHKLKKGLPLSEYNRALQEGEISPARDDEITNPDESSSQVEDLSELHHRQHQQQQQYQQRYRRPPFNNFHDMSDSGYSAPRRRLHHQFEHLGSEQQQQQQQQTPAPKIVYPSMQVVNIEMATGDGPKRSDNHHYHHHHHQRRHIPAPPSTGPLSSLIDQADYEASMASGKMFGKPENIRTYGAMIRANEEHVERNQTGVVKKERATVLPKRDLSLIREEDTLLVDGSHLNMTSSAILPAHQIPSTTTTSTSSPVQEQPWYEKIFGKMTMIQEESSMGGEDDDAHEDHYSR”: the “soluble on expression in E. coli” value is listed as “not soluble”.

In the case of “MQSTPKPFDIEQPSLRVFLPAPELATGRAVVACPGGGYSGLAVNHEGYDWAPYFNKQGIALIVLKYRMPKGDRTLPISDAEAAMKMVRDSADVWNLNPNDIGIMGSSAGGHLASTIATHAPEALRPNFQILFYPVITMDKSFTHMGSHDNLLGKDASADLEKEFSNEKQVTKETPRAFIVYSDDDKVVPPANGVNYYLALNKKGVPSVLHIYPTGGHGWGIREDFLEHHHHHH”, the “soluble on expression in E. coli” value was “not soluble”.

As to “MQTDIHDEPVNLGFGVQFEPDDLYRLRSQFLPLGKIGGKPSWLNPKNLPKSADLLCNVCEKPLCFLMQVSANGGINDPPHAFHRSLFLFVCRNPSCSRTNDAANLKAFRCQLPRANDYYSFDGPMDPDLDGDVADPRAPADGPGLCRICGCSAAKKCAKCQVARYCSQAHQVIDWPAHKLECAKAATDGSITDEPKNPRNAFCFKEFGVEIDQEYMPANLFDGLSDDEGDEEEEEGNDEDETEEEKKARIREFEKFVKENKGKNADMTKEDLDEATAEQPKDIDFDKFNRLVNLQPDQIIRYKRYGQPLRATGLSELPEVVEPCELCGAPRRFEMQLMPHLLSLIDVDAIGQSIDWASVYVYTCSASCQIADDGYAKEFVAKQDFL”, the “soluble on expression in E. coli” value is recorded as “not soluble”.

Consider “MQTFQADLAIVGAGGAGLRAAIAAAQANPNAKIALISKVYPMRSHTVAAEGGSAAVAQDHDSFEYHFHDTVAGGDWLCEQDVVDYFVHHCPTEMTQLELWGCPWSRRPDGSVNVRRFGGMKIERTWFAADKTGFHMLHTLFQTSLQFPQIQRFDEHFVLDILVDDGHVRGLVAMNMMEGTLVQIRANAVVMATGGAGRVYRYNTNGGIVTGDGMGMALSHGVPLRDMEFVQYHPAGLPGSGILMTEGCRGEGGILVNKNGYRYLQDYGMGPETPLGEPKNKYMELGPRDKVSQAFWHEWRKGNTISTPRGDVVYLDLRHLGEKKLHERLPFICELAKAYVGVDPVKEPIPVRPTAHYTMGGIETDQNCETRIKGLFAVGECSSVGLHGANRLGSNSLAELVVFGRLAGEQATERAATAGNGNEAAIEAQAAGVEQRLKDLVNQDGGENWAKIRDEMGLAMEEGCGIYRTPELMQKTIDKLAELQERFKRVRITDTSSVFNTDLLYTIELGHGLNVAECMAHSAMARKESRGAHQRLDEGCTERDDVNFLKHTLAFRDADGTTRLEYSDVKITTLPPAKRVYGGEADAADKAEAANKKEKANG”, for which the “soluble on expression in E. coli” value was “soluble”.

Consider “MQTGNGEYHMGNTMTKAIYEKFKSATPYGNTVATGAIPTETVDIAVNVGGFKVGDQNYPINPKVTFTNNTGQDIPGGTEFQFDIPVSAPDNAKDQSGGGLQVIASGHTRPNNIGGLDGTMHRVAFTLPAWKALPAGGVYELDMVYYLPISGPANYTVNINNVDYAFKFEQPDLPLADLSSLEHHHHHH”, for which the “soluble on expression in E. coli” value was “soluble”.

Regarding “MQTKEKLASLSYLAVKSLLYELNLTPKPGLVDCHNNGAHNDMDFYTFLDSILSLSPFFKKYIEVGWLYHNESPQYLFNQLRKLGIEAEAAMFSATERVNTHKGINFSFALLLGATGSYLAKHIELIQEKRRFMPQDSLTICHLAGEMSMHLIQNDLSHVETKRNLTYGEKLFLQYGLKGLRGEASQGYPSLTQKALPFFRNELLKKQDIQISQLKLLLYLMTFIEDSNIIHRGGIKSWKKVQQEAQTLLEKDLPPYQLKEQLNSYNQILTDRHLSPGGAADLLSLTLYFSFLEQLI”, the “soluble on expression in E. coli” value is given as “not soluble”.

As for “MQVDADLRPILGPQLVRLDPMRVKQLQDPIVYEAIDNLAKLSAHCLQLRTPLTTCEKLINSDSTLYLSWKYDEEEKVSRLMGFAKVGRKKLFLYDSQMQTYEGEILCLLDFYVHFSCQRQGVGQQILDYMFSQEHTEPYQLALDNPSVTLLGFMSQKYGLIKPVWQNTNFVVFEELFLALSAENGIEKPPPDGWRRPMTPRRLGTGMTDTRWLQHAVSGHQSKGNAMAAPVDADMTPQGALSNRAHQAKARKAHILSSKPLW”, the “soluble on expression in E. coli” value is “soluble”.

Take “MRAERRKQLFRLLGDLPDRRPISVETLRIEEREENIVETLLLDLNGHEKAPAYFVKPKKTEGPCPAVLFQHSHGGQYDRGKSELIEGADYLKTPSFSDELTSLGYGVLAIDHWGFGDRRGKAESEIFKEMLLTGKVMWGMMIYDSLSALDYMQSRSDVQPDRIGTIGMSMGGLMAWWTAALDDRIKVCVDLCSQVDHHVLIKTQNLDRHGFYYYVPSLAKHFSASEIQSLIAPRPHLSLVGVHDRLTPAEGVDKIEKELTAVYAGQGAADCYRVVRSASGHFETAVIRHEAVRFLQKWLLEHHHHHH”: the “soluble on expression in E. coli” value is listed as “not soluble”.

Consider “MRAIVLLSVLISCYLVIAEDYYELLGVERDADDRTIRKAFKKLAIKKHPDRNTDDPNAHDEFVKINKAYEVLKDENLRKKYDQFGEKGLEDGFQGGNNYQSWQFYNDNFGIYDDDQEIVTLNRADFQRMVSDSNEIWFINFYSTYCSHCHQLAPTWRKFAREIEGTIRVGAVNCAEDPQLCQSQRVNAYPSLVFYPTGEFYQGHRDVELMVDFAIQRLKSEVLHLNSENWKALSEDWEPYNRLPWVVDMCGGDHIDCLSSTTRRKLSSMLDGLANVATIDCNAEEALCSKFNPITSGVMWFPARKLVKKSQINIESMDAQEISKSVIQYLDELEDISVESLQRLLEGNDPDEPIAVWMLANDAQSTERKDFRRLPALVTTQIFKFDCSKSSEICDELLDKTKLPQFMVFKTTGGYEIDYAGSKDFHAASTFIREASKSHIHVLNRDSYEYAISGGEFYIIDYFAPWCPPCMKLLGEYRRFHTATSEDSMLHTVAIGSLDCVKYKDLCQQAGVQSYPTSIVYTPDGKTHKMVGYHNVDYILEFLDNSLNPSVMEMSPEQFEELVMNRKDEETWLVDFFAPWCGPCQQLAPELQKAARQIAAFDENAHVASIDCQKYAQFCTNTQINSYPTVRMYPAKKTKQPRRSPFYDYPNHMWRNSDSIQRWVYNFLPTEVVSLGNDFHTTVLDSSEPWIVDFFAPWCGHCIQFAPIYDQIAKELAGKVNFAKIDCDQWPGVCQGAQVRAYPTIRLYTGKTGWSRQGDQGIGIGTQHKEQFIQIVRQQLKLDEHDEL”, for which the “soluble on expression in E. coli” value is on record as “not soluble”.

Take “MRAMYDLLKQKADVWDLFTRKKEYQPSKLDEHGRFFFTEEDLKNASSPEVSRYLVENGLKVEFPENKTFAVCLTHDMDDIYPPFSHSLLSSVSCLKSLDFRGLTAPFLWRFKGPEYSPYLNFSDIMDLEEGFGAKSSFYFLASREDPVRFRYDIEDLENLLGDISDRGWEAGLHGGYYSYDNLEALNNEKKSLEKVLGKKVLGFRNHYLRFKTPETWELLADAGFGYDSTFGYSELAGFRNGMCHPFKPYNLNKEREINILEIPLTVMDVALFKASSSFEEAWRCTKDLIDTAAGLNGVITLLWHNFVFGCSFRKDWIKLYEKALQYCSEKGAWITSGEEIYRWWENGAMAGDPLEHHHHHH”: the “soluble on expression in E. coli” value is “soluble”.

Consider “MRAWPIHLHVGSIERSSALLVGGCNVVYGLSSHEKSNVGFGEVGSQSWIAQNRVLLFDPDGIDMPVDDRDMHVLQTRQQAPIDTRIAFQGLGVNSMQQNAGVFVGDAQITGWDQHQKSNKASGDIGGDHNVEIAGLHVNYDADGMDGVFLDSDHKAGTFVRQG”, for which the “soluble on expression in E. coli” value is “not soluble”.

As for “MRCVGVGNRDFVEGVSGGAWVDLVLEHGGCVTTMAQGKPTLDFELTKTTAKEVALLRTYCIEASISNITTATRCPTQGEPYLKEEQDQQYICRRDVVDRGWGNGCGLFGKGGVVTCAKFSCSGKITGNLVQIENLEYTVVVTVHNGDTHAVGNDTSNHGVTATITPRSPSVEVKLPDYGELTLDCEPRSGIDFNEMILMKMKKKTWLVHKQWFLDLPLPWTAGADTSEVHWNYKERMVTFKVPHAKRQDVTVLGSQEGAMHSALAGATEVDSGDGNHMFAGHLKCKVRMEKLRIKGMSYTMCPGKFSIDKEMAETQHGTTVVKVKYEGAGAPCKVPIEIRDVNKEKVVGRIISSTPLAENTNSATNIELEPPFGDSYIVIGVGNSALTLHWFRKGSSIGKSLEHHHHHHHH”, the “soluble on expression in E. coli” value is on record as “not soluble”.

In the case of “MRDIDGGTMGYRVGVDIGGSFTDFAVFDEDNGEIKSLKVFSRPDQPGEEVIAGVRMLGERYGIQPEQITYFTHGTTVGINTVIQRKGLKLALFTTENFSDVLELARLKTPDMYHLLSRRPAPLVKRSMVFGIAERMGPDGTVRAPLDEASVERAVRQALDAGAEGIVVSLLHAYRNPAHELRVREIAEALA”, the “soluble on expression in E. coli” value is listed as “not soluble”.

For “MRDNKELTESKLHLDEFSAYLMSIDKSDSTIKTYIEHIQAFAKWFEETNCIDFDPAVITEIDIRDMRSYLQGTRHLKETTINLRLASLKCYFSFLESEKYIKHNPARNIRKIKLQSPNIAKSLDEQTYRALRRHVYRGGNKAHIAMFEIFTRCGVRNFELINIRLTDFDISDRKGTLKIVGKLNKVRYIPLHKDVRDAINNWMEIRKNIKTEYDNLFISERKTPYTRSGIWKIFKKYCEQIGITDVTIHSFRHYFCRTLLKNGVDISVVAKLAGHSSGFVTAQVYTIPRQEELEAAIETLV”, the “soluble on expression in E. coli” value is reported as “not soluble”.

In the case of “MRDNLVEQIISDVMNKQTDISPEAKTAANFAGCGITEFVGTALGHTIGLVIANVDNQLHEVMNIDKKYRSIGILGARTGAGPQIFAADEAIKATNSEIISIELARDTEGGGGHGCLIIFGASDVSDVRRAVEVALSEIERTMGDVYGSSAGHLEFQYTARASYALNKALGAPIGKSFGMTCASPAAIGLVIADAAAKSAVIDPVGYASPSQGTSFSNEVIFTFSGDSGAVRQAVIAAREVGLQLLSTLDPVEIKSTTTPYI”, the “soluble on expression in E. coli” value is reported as “soluble”.

(Values after the DeepSol protein solubility set.)
